Experimental data as given in US20180187179.

T1: β-casein, P02666
T1 chain: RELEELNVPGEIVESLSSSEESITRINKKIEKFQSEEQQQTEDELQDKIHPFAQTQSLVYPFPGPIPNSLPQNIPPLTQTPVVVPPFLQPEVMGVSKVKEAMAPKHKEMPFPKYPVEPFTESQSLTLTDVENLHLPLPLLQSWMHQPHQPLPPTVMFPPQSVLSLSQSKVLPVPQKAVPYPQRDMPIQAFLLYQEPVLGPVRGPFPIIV

B1: camel chymosin variant 293 (Y190A+N100Q+N291Q) (protein)
chain: GKVAREPLTSYLDSQYFGKIYIGTPPQEFTVVFDTGSSDLWVPSIYCKSNVCKNHHRFDPRKSSTFRNLGKPLSIHYGTGSMEGFLGYDTVTVSNIVDPQQTVGLSTEQPGEVFTYSEFDGILGLAYPSLASEYSVPVFDNMMDRHLVARDLFSVYMDRNGQGSMLTLGAIDPSYYTGSLHWVPVTLQQAWQFTVDSVTINGVAVACVGGCQAILDTGTSVLFGPSSDILKIQMAIGATENRYGEFDVNCGNLRSMPTVVFEINGRDYPLSPSAYTSKDQGFCTSGFQGDQNSELWILGDVFIREYYSVFDRANNRVGLAKAI
B2: camel chymosin variant 306 (G251D+N100Q+N291Q) (protein)
chain: GKVAREPLTSYLDSQYFGKIYIGTPPQEFTVVFDTGSSDLWVPSIYCKSNVCKNHHRFDPRKSSTFRNLGKPLSIHYGTGSMEGFLGYDTVTVSNIVDPQQTVGLSTEQPGEVFTYSEFDGILGLAYPSLASEYSVPVFDNMMDRHLVARDLFSVYMDRNGQGSMLTLGAIDPSYYTGSLHWVPVTLQQYWQFTVDSVTINGVAVACVGGCQAILDTGTSVLFGPSSDILKIQMAIGATENRYGEFDVNCDNLRSMPTVVFEINGRDYPLSPSAYTSKDQGFCTSGFQGDQNSELWILGDVFIREYYSVFDRANNRVGLAKAI
B3: camel chymosin variant 272 (D290E+N100Q+N291Q) (protein)
chain: GKVAREPLTSYLDSQYFGKIYIGTPPQEFTVVFDTGSSDLWVPSIYCKSNVCKNHHRFDPRKSSTFRNLGKPLSIHYGTGSMEGFLGYDTVTVSNIVDPQQTVGLSTEQPGEVFTYSEFDGILGLAYPSLASEYSVPVFDNMMDRHLVARDLFSVYMDRNGQGSMLTLGAIDPSYYTGSLHWVPVTLQQYWQFTVDSVTINGVAVACVGGCQAILDTGTSVLFGPSSDILKIQMAIGATENRYGEFDVNCGNLRSMPTVVFEINGRDYPLSPSAYTSKDQGFCTSGFQGEQNSELWILGDVFIREYYSVFDRANNRVGLAKAI
B4: camel chymosin variant 307 (Y243E+N100Q+N291Q) (protein)
chain: GKVAREPLTSYLDSQYFGKIYIGTPPQEFTVVFDTGSSDLWVPSIYCKSNVCKNHHRFDPRKSSTFRNLGKPLSIHYGTGSMEGFLGYDTVTVSNIVDPQQTVGLSTEQPGEVFTYSEFDGILGLAYPSLASEYSVPVFDNMMDRHLVARDLFSVYMDRNGQGSMLTLGAIDPSYYTGSLHWVPVTLQQYWQFTVDSVTINGVAVACVGGCQAILDTGTSVLFGPSSDILKIQMAIGATENREGEFDVNCGNLRSMPTVVFEINGRDYPLSPSAYTSKDQGFCTSGFQGDQNSELWILGDVFIREYYSVFDRANNRVGLAKAI
B5: camel chymosin variant 296 (S273Y+N100Q+N291Q) (protein)
chain: GKVAREPLTSYLDSQYFGKIYIGTPPQEFTVVFDTGSSDLWVPSIYCKSNVCKNHHRFDPRKSSTFRNLGKPLSIHYGTGSMEGFLGYDTVTVSNIVDPQQTVGLSTEQPGEVFTYSEFDGILGLAYPSLASEYSVPVFDNMMDRHLVARDLFSVYMDRNGQGSMLTLGAIDPSYYTGSLHWVPVTLQQYWQFTVDSVTINGVAVACVGGCQAILDTGTSVLFGPSSDILKIQMAIGATENRYGEFDVNCGNLRSMPTVVFEINGRDYPLSPYAYTSKDQGFCTSGFQGDQNSELWILGDVFIREYYSVFDRANNRVGLAKAI
B6: camel chymosin variant 275 (R242Q+N100Q+N291Q) (protein)
chain: GKVAREPLTSYLDSQYFGKIYIGTPPQEFTVVFDTGSSDLWVPSIYCKSNVCKNHHRFDPRKSSTFRNLGKPLSIHYGTGSMEGFLGYDTVTVSNIVDPQQTVGLSTEQPGEVFTYSEFDGILGLAYPSLASEYSVPVFDNMMDRHLVARDLFSVYMDRNGQGSMLTLGAIDPSYYTGSLHWVPVTLQQYWQFTVDSVTINGVAVACVGGCQAILDTGTSVLFGPSSDILKIQMAIGATENQYGEFDVNCGNLRSMPTVVFEINGRDYPLSPSAYTSKDQGFCTSGFQGDQNSELWILGDVFIREYYSVFDRANNRVGLAKAI
B7: camel chymosin variant 295 (H76Q+N100Q+N291Q) (protein)
chain: GKVAREPLTSYLDSQYFGKIYIGTPPQEFTVVFDTGSSDLWVPSIYCKSNVCKNHHRFDPRKSSTFRNLGKPLSIQYGTGSMEGFLGYDTVTVSNIVDPQQTVGLSTEQPGEVFTYSEFDGILGLAYPSLASEYSVPVFDNMMDRHLVARDLFSVYMDRNGQGSMLTLGAIDPSYYTGSLHWVPVTLQQYWQFTVDSVTINGVAVACVGGCQAILDTGTSVLFGPSSDILKIQMAIGATENRYGEFDVNCGNLRSMPTVVFEINGRDYPLSPSAYTSKDQGFCTSGFQGDQNSELWILGDVFIREYYSVFDRANNRVGLAKAI
B8: camel chymosin variant 304 (S132A+N100Q+N291Q) (protein)
chain: GKVAREPLTSYLDSQYFGKIYIGTPPQEFTVVFDTGSSDLWVPSIYCKSNVCKNHHRFDPRKSSTFRNLGKPLSIHYGTGSMEGFLGYDTVTVSNIVDPQQTVGLSTEQPGEVFTYSEFDGILGLAYPSLAAEYSVPVFDNMMDRHLVARDLFSVYMDRNGQGSMLTLGAIDPSYYTGSLHWVPVTLQQYWQFTVDSVTINGVAVACVGGCQAILDTGTSVLFGPSSDILKIQMAIGATENRYGEFDVNCGNLRSMPTVVFEINGRDYPLSPSAYTSKDQGFCTSGFQGDQNSELWILGDVFIREYYSVFDRANNRVGLAKAI
B9: camel chymosin variant 270 (V32L+N100Q+N291Q) (protein)
chain: GKVAREPLTSYLDSQYFGKIYIGTPPQEFTVLFDTGSSDLWVPSIYCKSNVCKNHHRFDPRKSSTFRNLGKPLSIHYGTGSMEGFLGYDTVTVSNIVDPQQTVGLSTEQPGEVFTYSEFDGILGLAYPSLASEYSVPVFDNMMDRHLVARDLFSVYMDRNGQGSMLTLGAIDPSYYTGSLHWVPVTLQQYWQFTVDSVTINGVAVACVGGCQAILDTGTSVLFGPSSDILKIQMAIGATENRYGEFDVNCGNLRSMPTVVFEINGRDYPLSPSAYTSKDQGFCTSGFQGDQNSELWILGDVFIREYYSVFDRANNRVGLAKAI
B10: camel chymosin variant 308 (S273D+N100Q+N291Q) (protein)
chain: GKVAREPLTSYLDSQYFGKIYIGTPPQEFTVVFDTGSSDLWVPSIYCKSNVCKNHHRFDPRKSSTFRNLGKPLSIHYGTGSMEGFLGYDTVTVSNIVDPQQTVGLSTEQPGEVFTYSEFDGILGLAYPSLASEYSVPVFDNMMDRHLVARDLFSVYMDRNGQGSMLTLGAIDPSYYTGSLHWVPVTLQQYWQFTVDSVTINGVAVACVGGCQAILDTGTSVLFGPSSDILKIQMAIGATENRYGEFDVNCGNLRSMPTVVFEINGRDYPLSPDAYTSKDQGFCTSGFQGDQNSELWILGDVFIREYYSVFDRANNRVGLAKAI
B11: camel chymosin variant 282 (Q280E+N100Q+N291Q) (protein)
chain: GKVAREPLTSYLDSQYFGKIYIGTPPQEFTVVFDTGSSDLWVPSIYCKSNVCKNHHRFDPRKSSTFRNLGKPLSIHYGTGSMEGFLGYDTVTVSNIVDPQQTVGLSTEQPGEVFTYSEFDGILGLAYPSLASEYSVPVFDNMMDRHLVARDLFSVYMDRNGQGSMLTLGAIDPSYYTGSLHWVPVTLQQYWQFTVDSVTINGVAVACVGGCQAILDTGTSVLFGPSSDILKIQMAIGATENRYGEFDVNCGNLRSMPTVVFEINGRDYPLSPSAYTSKDEGFCTSGFQGDQNSELWILGDVFIREYYSVFDRANNRVGLAKAI
B12: camel chymosin variant 276 (G289S+N100Q+N291Q) (protein)
chain: GKVAREPLTSYLDSQYFGKIYIGTPPQEFTVVFDTGSSDLWVPSIYCKSNVCKNHHRFDPRKSSTFRNLGKPLSIHYGTGSMEGFLGYDTVTVSNIVDPQQTVGLSTEQPGEVFTYSEFDGILGLAYPSLASEYSVPVFDNMMDRHLVARDLFSVYMDRNGQGSMLTLGAIDPSYYTGSLHWVPVTLQQYWQFTVDSVTINGVAVACVGGCQAILDTGTSVLFGPSSDILKIQMAIGATENRYGEFDVNCGNLRSMPTVVFEINGRDYPLSPSAYTSKDQGFCTSGFQSDQNSELWILGDVFIREYYSVFDRANNRVGLAKAI
B13: camel chymosin variant 299 (L222I+N100Q+N291Q) (protein)
chain: GKVAREPLTSYLDSQYFGKIYIGTPPQEFTVVFDTGSSDLWVPSIYCKSNVCKNHHRFDPRKSSTFRNLGKPLSIHYGTGSMEGFLGYDTVTVSNIVDPQQTVGLSTEQPGEVFTYSEFDGILGLAYPSLASEYSVPVFDNMMDRHLVARDLFSVYMDRNGQGSMLTLGAIDPSYYTGSLHWVPVTLQQYWQFTVDSVTINGVAVACVGGCQAILDTGTSVIFGPSSDILKIQMAIGATENRYGEFDVNCGNLRSMPTVVFEINGRDYPLSPSAYTSKDQGFCTSGFQGDQNSELWILGDVFIREYYSVFDRANNRVGLAKAI
B14: camel chymosin variant 305 (S226T+N100Q+N291Q) (protein)
chain: GKVAREPLTSYLDSQYFGKIYIGTPPQEFTVVFDTGSSDLWVPSIYCKSNVCKNHHRFDPRKSSTFRNLGKPLSIHYGTGSMEGFLGYDTVTVSNIVDPQQTVGLSTEQPGEVFTYSEFDGILGLAYPSLASEYSVPVFDNMMDRHLVARDLFSVYMDRNGQGSMLTLGAIDPSYYTGSLHWVPVTLQQYWQFTVDSVTINGVAVACVGGCQAILDTGTSVLFGPTSDILKIQMAIGATENRYGEFDVNCGNLRSMPTVVFEINGRDYPLSPSAYTSKDQGFCTSGFQGDQNSELWILGDVFIREYYSVFDRANNRVGLAKAI
B15: camel chymosin variant 280 (D290L+N100Q+N291Q) (protein)
chain: GKVAREPLTSYLDSQYFGKIYIGTPPQEFTVVFDTGSSDLWVPSIYCKSNVCKNHHRFDPRKSSTFRNLGKPLSIHYGTGSMEGFLGYDTVTVSNIVDPQQTVGLSTEQPGEVFTYSEFDGILGLAYPSLASEYSVPVFDNMMDRHLVARDLFSVYMDRNGQGSMLTLGAIDPSYYTGSLHWVPVTLQQYWQFTVDSVTINGVAVACVGGCQAILDTGTSVLFGPSSDILKIQMAIGATENRYGEFDVNCGNLRSMPTVVFEINGRDYPLSPSAYTSKDQGFCTSGFQGLQNSELWILGDVFIREYYSVFDRANNRVGLAKAI
B16: camel chymosin variant 303 (L130I+N100Q+N291Q) (protein)
chain: GKVAREPLTSYLDSQYFGKIYIGTPPQEFTVVFDTGSSDLWVPSIYCKSNVCKNHHRFDPRKSSTFRNLGKPLSIHYGTGSMEGFLGYDTVTVSNIVDPQQTVGLSTEQPGEVFTYSEFDGILGLAYPSIASEYSVPVFDNMMDRHLVARDLFSVYMDRNGQGSMLTLGAIDPSYYTGSLHWVPVTLQQYWQFTVDSVTINGVAVACVGGCQAILDTGTSVLFGPSSDILKIQMAIGATENRYGEFDVNCGNLRSMPTVVFEINGRDYPLSPSAYTSKDQGFCTSGFQGDQNSELWILGDVFIREYYSVFDRANNRVGLAKAI

Molecular target: T1, β-casein, P02666
Conditions: scale: % cleavage of non-glycosylated camel chymosin

| Protein | β(193-209): cleavage of β-casein at position 192/193 |
| --- | --- |
| B1 | 28 |
| B2 | 88 |
| B3 | 60 |
| B4 | 62 |
| B5 | 58 |
| B6 | 74 |
| B7 | 48 |
| B8 | 28 |
| B9 | 28 |
| B10 | 66 |
| B11 | 85 |
| B12 | 51 |
| B13 | 54 |
| B14 | 44 |
| B15 | 58 |
| B16 | 29 |
